Data taken from patent US20210292423A1 (published 2021).
Read-outs that look alike come from different tables or passages of the source.

B1: CODV-Fab hz4B4x3E3 antibody-like binding protein (bispecific antibody)
light: QFVLTQPNSVSTNLGSTVKLSCKRNTGNIGSNYVNWYQQHEGRSPTTMIYRDDKRPDGVPDRFSGSIDRSSNSALLTINNVQTEDEADYFCQSYSSGINIIFGGGTKLTVLGQPKAAPDVVMTQTPVSLSVSVGGRVSISCRSSQSLVHDNGNTYLSWSLQKPGKSPKVLIYKVSNRFSGVSSRFTGSGSGTDFTLKISSVQPDDLGVYYCGQGTQYPFTFGSGTKLEIKTKGPSRTVAAPSVFIFPPSDEQLKSGTASVVCLLNNFYPREAKVQWKVDNALQSGNSQESVTEQDSKDSTYSLSSTLTLSKADYEKHKVYACEVTHQGLSSPVTKSFNRGEC
heavy: QVQLVETGGGLVKPGQSLKLTCATSGFTFSNAWMHWVRQSPEKGLEWVAQIKARSNNYATYYAESVKGRFTISRDDSKSTIYLQMNSLTPEDTAIYYCRGTYYASKPFDYWGQGVMVTVSSSQVQLQESGPGLVQPSQTLSLTCTVSGFSLTTYDVHWVRQPPGKGLEWMGRIQNGGITDYNSALKSRLIISRDTSKSQVFLKMNSVQTEDTAMYFCAKTGSYFYAFDHWGQGTLVTVSSRTASTKGPSVFPLAPSSKSTSGGTAALGCLVKDYFPEPVTVSWNSGALTSGVHTFPAVLQSSGLYSLSSVVTVPSSSLGTQTYICNVNHKPSNTKVDKKVEPKSCDKTHTHHHHHH
notes: also called hz4B4 × 3E3 CODV-Fab
B2: single chain CD123 × CD3 bi-specific diabody in DART format MGD006 (bispecific antibody)
chain 1: QAVVTQEPSLTVSPGGTVTLTCRSSTGAVTTSNYANWVQQKPGQAPRGLIGGTNKRAPWTPARFSGSLLGGKAALTITGAQAEDEADYYCALWYSNLWVFGGGTKLTVLGGGGSGGGGEVQLVQSGAELKKPGASVKVSCKASGYTFTDYYMKWVRQAPGQGLEWIGDIIPSNGATFYNQKFKGRVTITVDKSTSTAYMELSSLRSEDTAVYYCARSHLLRASWFAYWGQGTLVTVSSGGCGGGEVAALEKEVAALEKEVAALEKEVAALEK
chain 2: DFVMTQSPDSLAVSLGERVTMSCKSSQSLLNSGNQKNYLTWYQQKPGQPPKLLIYWASTRESGVPDRFSGSGSGTDFTLTISSLQAEDVAVYYCQNDYSYPYTFGQGTKLEIKGGGSGGGGEVQLVESGGGLVQPGGSLRLSCAASGFTFSTYAMNWVRQAPGKGLEWVGRIRSKYNNYATYYADSVKDRFTISRDDSKNSLYLQMNSLKTEDTAVYYCVRHGNFGNSYVSWFAYWGQGTLVTVSSGGCGGGKVAALKEKVAALKEKVAALKEKVAALKE
notes: two chains covalently bonded by a disulfide bond; also called Single chain antibody DART format MGD006

Experiments:
[1] = biological target: T1, human CD123 (IL3RA) on cells (human, UniProt P26951 19-378); assay: cell-based or functional assay
T1 sequence (P26951 19-378): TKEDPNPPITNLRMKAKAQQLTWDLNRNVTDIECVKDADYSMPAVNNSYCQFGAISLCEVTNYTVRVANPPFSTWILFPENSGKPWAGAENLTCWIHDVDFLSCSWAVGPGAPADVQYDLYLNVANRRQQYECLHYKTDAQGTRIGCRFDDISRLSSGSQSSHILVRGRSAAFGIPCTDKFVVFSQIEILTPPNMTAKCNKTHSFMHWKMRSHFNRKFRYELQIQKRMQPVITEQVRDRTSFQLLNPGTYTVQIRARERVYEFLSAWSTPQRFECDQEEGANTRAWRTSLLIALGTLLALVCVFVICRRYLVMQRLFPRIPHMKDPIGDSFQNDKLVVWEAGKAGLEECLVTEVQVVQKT

[2] = biological target: T2, human CD123 Strep-II tagged Fc-fusion protein (human); assay: SPR Biacore
T2 construct: also called human CD123-Fc; recombinant CD123
T2 sequence (chain, as listed by the source limits assumed): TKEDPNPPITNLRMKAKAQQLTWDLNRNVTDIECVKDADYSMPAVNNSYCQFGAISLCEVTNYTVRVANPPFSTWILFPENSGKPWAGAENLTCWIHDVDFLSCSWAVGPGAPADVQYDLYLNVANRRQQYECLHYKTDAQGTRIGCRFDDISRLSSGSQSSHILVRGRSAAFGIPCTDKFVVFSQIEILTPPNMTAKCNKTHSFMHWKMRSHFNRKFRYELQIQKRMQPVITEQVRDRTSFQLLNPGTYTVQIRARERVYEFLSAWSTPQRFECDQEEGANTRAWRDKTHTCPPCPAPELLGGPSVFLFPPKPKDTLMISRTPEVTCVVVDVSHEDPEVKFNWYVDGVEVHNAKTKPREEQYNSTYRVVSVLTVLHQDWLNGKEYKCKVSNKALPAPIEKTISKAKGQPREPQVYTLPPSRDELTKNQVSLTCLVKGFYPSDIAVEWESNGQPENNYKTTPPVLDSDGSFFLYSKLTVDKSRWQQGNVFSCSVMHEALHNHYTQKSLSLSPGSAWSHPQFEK

[3] = biological target: T3, human CD3ε/δ-Fc fusion protein (soluble recombinant CD3ε/δ complex) (human, UniProt P04234 22-105); assay: SPR Biacore
T3 construct: also called huCD3ε/δ; huCD3; not shown: hinge, CH2, CH3 of human IgG with tag
T3 sequence (chain, as listed by the source mutant, chain 1 of 2): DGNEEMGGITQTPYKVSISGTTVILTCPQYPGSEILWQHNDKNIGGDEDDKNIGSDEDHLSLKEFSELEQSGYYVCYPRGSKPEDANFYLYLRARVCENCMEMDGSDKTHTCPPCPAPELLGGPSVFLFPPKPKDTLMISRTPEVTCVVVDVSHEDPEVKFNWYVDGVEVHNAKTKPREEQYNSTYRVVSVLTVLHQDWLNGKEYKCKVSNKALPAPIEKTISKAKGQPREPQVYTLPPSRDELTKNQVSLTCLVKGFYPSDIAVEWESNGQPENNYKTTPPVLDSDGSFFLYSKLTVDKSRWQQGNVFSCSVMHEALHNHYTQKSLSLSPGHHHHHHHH
T3 sequence (P04234 22-105, stated change not applied, chain 2 of 2): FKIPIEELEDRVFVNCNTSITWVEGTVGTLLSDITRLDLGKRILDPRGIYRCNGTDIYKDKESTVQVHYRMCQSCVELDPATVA

[4] = biological target: T1, human CD123 (IL3RA) on cells; assay: cell-based or functional assay; remark: listed apart in the source
[5] = biological target: T2, human CD123 Strep-II tagged Fc-fusion …; assay: SPR Biacore; remark: listed apart in the source
[6] = biological target: T3, human CD3ε/δ-Fc fusion protein (soluble …); assay: SPR Biacore; remark: listed apart in the source
[7] = biological target: T1, human CD123 (IL3RA) on cells; assay: cell-based or functional assay; remark: listed apart in the source
[8] = biological target: T4, human CD3 (TCR complex) on primary human T cells or Jurkat cells (human, UniProt P07766 23-207); assay: cell-based or functional assay
T4 sequence (P07766 23-207, one chain of several): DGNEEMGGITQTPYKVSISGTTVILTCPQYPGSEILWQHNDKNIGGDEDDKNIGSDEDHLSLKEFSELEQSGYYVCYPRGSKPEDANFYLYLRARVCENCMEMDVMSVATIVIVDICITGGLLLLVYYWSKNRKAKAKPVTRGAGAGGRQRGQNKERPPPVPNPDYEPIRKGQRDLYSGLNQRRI

[9] = biological target: T4, human CD3 (TCR complex) on primary …; assay: cell-based or functional assay; remark: listed apart in the source

Binder	Cytotoxicity (THP-1) geomean EC50 [1] [ng/mL]	Cytotoxicity (THP-1) geomean EC50 [pM] [1] [pM]	Kd [2] [nM]	Kd [3] [nM]	Cytotoxic assay (THP cells) EC50 [pM] [4] [pM]	Kd [5] [nM]	Kd [6] [nM]	Cytotoxic assay (THP cells) EC50 [pM] [7] [pM]	Jurkat-NFAT-Luc reporter, no target cells, activation at Cmax in relation to max. activation in assay with target cells (%) [8] [%]	Jurkat-NFAT-Luc reporter, with THP1 cells, EC50 (pM) [8] [pM]	T cell activation with THP-1 target cells, CD4+ T cells (% CD69+ cells) EC50 (pM) [9] [pM]	T cell activation with THP-1 target cells, CD8+ T cells (% CD69+ cells) EC50 (pM) [9] [pM]
B1	2	26.5	4.8	7	26.5	–	–	–	–	–	–	–
B2	–	–	–	–	–	0.2	9	0.3	25.1	370	1	3.5
